Measurements published in patent US6413730.

Target: T1, GST-hElk-L cytoplasmic domain fusion protein (GST-Elk-L cyt) (UniProt P98172)
T1 sequence: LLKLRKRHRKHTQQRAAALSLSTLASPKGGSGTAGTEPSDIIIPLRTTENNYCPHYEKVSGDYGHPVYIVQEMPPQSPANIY

v-Src
in vitro kinase assay with 32P-gamma-ATP, autoradiography: A GST fusion protein containing the cytoplasmic domain of human Elk-L (residues 262-343) was tyrosine phosphorylated by v-Src in vitro
